Source: patent US8986682B2, “Method to increase the absorption of unsaturated fatty acids by human infants” (Swedish Orphan Biovitrum AB (publ), priority 2010, dated 2015)
Several values for one entry are separate records, joined by “and”; a condition that tells them apart may be missing. Identical values can stand only once. Marks after values point to notes of the source that are not given here.

Tested on: preterm infants born before week 32 of gestational age
Experiment: Coefficient of fat absorption (CFA), fat balance of food and stool by gas chromatography, studies BVT.BSSL-020/-021
Format: in vivo, human
Details: PP
Method: Patients were randomized to infant formula/pasteurized breast milk supplemented with rhBSSL at a final concentration of 0.15 g/L, or to infant formula/pasteurized breast milk “supplemented” with sterile water for injection (as placebo) for the first 7 days. After a washout period of 2 days, the patient was “crossed over” to the other treatment regimen during a second 7-day treatment period. Collection of feces samples for CFA assessment were performed during the last 3 days (72 hours) of each treatment period.
The collection of feces for the determination of CFA was performed over a period corresponding to the fat, i.e., formula or milk, ingestion during 72 hours toward the end of each treatment period. Diapers supplied to each site were used for feces collection. During the two treatment periods, a carmine red tracer dye was given as a marker together with a meal (approximately at noon) on Day 4 and Day 13, respectively, and collection of stool commenced with the appearance of the first carmine red marker in the stool. The stool containing the first marker was collected and the date and time of the first stool collected was recorded on the CRF. At 72 hours following administration of the first red marker, the second carmine marker was given, and stool collection continued until the second carmine marker appeared. The stool containing the second marker was not collected, but the date and time of the appearance of the second marker was recorded on the CRF. Diapers were weighed before placement and after removal and the difference in weight was recorded on the CRF. The times of each collection and the elapsed duration of the entire collection period was also recorded on the CRF. The use of ointments for the treatment of skin irritation was prohibited during the stool collection period. Diapers were to be changed frequently during the collection period to keep the skin dry. Patients with skin rash severity leading to discontinuation of the stool collection were to be withdrawn from the study. Specific collection methods were provided in a separate laboratory manual. If applicable, vomit from the stool collection periods of both treatment periods was weighed. A small cloth/linen was weighed and placed under the head of each infant. When the cloth/linen was soiled with vomit, it was removed and re-weighed. If an additional cloth was used to remove vomit from the infant, that cloth was also weighed before and after use. The weight of vomit (total weight minus the weight of the cloth/linen) was recorded on the CRF. All other feed losses, e.g., formula or milk left in bottle, were measured and the amount accounted for in the calculation of the volume of formula consumed at each feeding.
Feces samples, the formula (study 020) and the milk aliquots (study 021) were analyzed by a central laboratory. Individual fatty acids, including the long-chain polyunsaturated fatty acids DHA and AA, were quantified in feces and feed by a gas chromatographic method following extraction by the Folch method. In both studies, the Omegawax 250 column (Supelco) was used for separation of the fatty acids. However, due to co-elution of DHA with nervonic acid (C24:1), which was only present in the breast milk, samples from patients of the per-protocol analysis set from study 021 were also analyzed using a SP-2380 column (Supelco) in order to quantify DHA for those samples from study 021. […] Total lipids were calculated as the sum of the individual fatty acids. (See Section 7.5.1). The same analytical principle was used to determine lipids in each of the batches of formula and aliquots of breast milk used in the study. […]

[1] = BVT.BSSL-020 (infant formula), 72-hour collection period
[2] = BVT.BSSL-021 (pasteurized breast milk)

B1: rhBSSL: recombinant human bile-salt-stimulated lipase, SEQ ID. NO. 1, expressed from recombinant CHO cells; used in both clinical trials (protein, listed as Homo sapiens)
chain: AKLGAVYTEGGFVEGVNKKLGLLGDSVDIFKGIPFAAPTKALENPQPHPGWQGTLKAKNFKKRCLQATITQDSTYGDEDCLYLNIWVPQGRKQVSRDLPVMIWIYGGAFLMGSGHGANFLNNYLYDGEEIATRGNVIVVTFNYRVGPLGFLSTGDANLPGNYGLRDQHMAIAWVKRNIAAFGGDPNNITLFGESAGGASVSLQTLSPYNKGLIRRAISQSGVALSPWVIQKNPLFWAKKVAEKVGCPVGDAARMAQCLKVTDPRALTLAYKVPLAGLEYPMLHYVGFVPVIDGDFIPADPINLYANAADIDYIAGTNNMDGHIFASIDMPAINKGNKKVTEEDFYKLVSEFTITKGLRGAKTTFDVYTESWAQDPSQENKKKTVVDFETDVLFLVPTEIALAQHRANAKSAKTYAYLFSHPSRMPVYPKWVGADHADDIQYVFGKPFATPTGYRPQDRTVSKAMIAYWTNFAKTGDPNMGDSAVPTHWEPYTTENSGYLEITKKMGSSSMKRSLRTNFLRYWTLTYLALPTVTDQEATPVPPTGDSEATPVPPTGDSETAPVPPTGDSGAPPVPPTGDSGAPPVPPTGDSGAPPVPPTGDSGAPPVPPTGDSGAPPVPPTGDSGAPPVPPTGDSGAPPVPPTGDAGPPPVPPTGDSGAPPVPPTGDSGAPPVTPTGDSETAPVPPTGDSGAPPVPPTGDSEAAPVPPTDDSKEAQMPAVIRF
B1 was tested, and the “CFA (overall), LS Mean” value (BVT.BSSL-020 (infant formula)) was 69.46%, the “CFA (overall), LS Mean Difference (rhBSSL − Placebo)” value (BVT.BSSL-020 (infant formula)) was 2.08% and the “CFA (overall), Maximum” value (BVT.BSSL-020 (infant formula)) was 89.0%. For the same molecule, the “CFA (overall), Mean (SD)” value (BVT.BSSL-020 (infant formula)) was 69.55 (14.452) %, the “CFA (overall), Median” value (BVT.BSSL-020 (infant formula)) was 70.99% and the “CFA (overall), Minimum” value (BVT.BSSL-020 (infant formula)) was 36.8%. The “CFA for C12:0” value (BVT.BSSL-020 (infant formula)) was 89.70%, the “CFA for C12:0, Difference (rhBSSL − Placebo)” value (BVT.BSSL-020 (infant formula)) was 1.18% and the “CFA for C14:0” value (BVT.BSSL-020 (infant formula)) was 76.56%. The “CFA for C14:0, Difference (rhBSSL − Placebo)” value (BVT.BSSL-020 (infant formula)) was 3.19%, the “CFA for C16:0” value (BVT.BSSL-020 (infant formula)) was 46.95% and the “CFA for C16:0, Difference (rhBSSL − Placebo)” value (BVT.BSSL-020 (infant formula)) was 0.45%. The “CFA for C18:0” value (BVT.BSSL-020 (infant formula)) was 42.20%, the “CFA for C18:0, Difference (rhBSSL − Placebo)” value (BVT.BSSL-020 (infant formula)) was −1.10% and the “CFA for C18:1” value (BVT.BSSL-020 (infant formula)) was 76.24%. For the same molecule, the “CFA for C18:1, Difference (rhBSSL − Placebo)” value (BVT.BSSL-020 (infant formula)) was 2.37%, the “CFA for C18:2 n-6” value (BVT.BSSL-020 (infant formula)) was 83.91% and the “CFA for C18:2 n-6, Difference (rhBSSL − Placebo)” value (BVT.BSSL-020 (infant formula)) was 4.99%. The “CFA for C18:3 n-3” value (BVT.BSSL-020 (infant formula)) was 87.79%, the “CFA for C18:3 n-3, Difference (rhBSSL − Placebo)” value (BVT.BSSL-020 (infant formula)) was 4.42% and the “CFA for C20:4 n-6 (AA)” value (BVT.BSSL-020 (infant formula)) was 82.96%. For the same molecule, the “CFA for C20:4 n-6 (AA), Difference (rhBSSL − Placebo)” value (BVT.BSSL-020 (infant formula)) was 7.14%, the “CFA for C22:6 n-3 (DHA)” value (BVT.BSSL-020 (infant formula)) was 81.15% and the “CFA for C22:6 n-3 (DHA), Difference (rhBSSL − Placebo)” value (BVT.BSSL-020 (infant formula)) was 6.85%. The “Total Amount of Fat in Stool, Maximum” value [1] was 15.0 g, the “Total Amount of Fat in Stool, Mean (SD)” value [1] was 8.53 g and 8.53 (3.416) g and the “Total Amount of Fat in Stool, Median” value [1] was 8.63 g. The “Total Amount of Fat in Stool, Minimum” value [1] was 3.2 g, the “Coefficient of absorption of the sum of all LCPUFAs, LS mean” value (BVT.BSSL-020 Formula) was 82.2% and the “Coefficient of absorption of the sum of all LCPUFAs, LS mean difference (rhBSSL-Placebo)” value (BVT.BSSL-020 Formula) was 7.01%. The “Coefficient of absorption of the sum of all polyunsaturated fatty acids, LS mean” value (BVT.BSSL-020 Formula) was 84.0%, the “Coefficient of absorption of the sum of all polyunsaturated fatty acids, LS mean difference (rhBSSL-Placebo)” value (BVT.BSSL-020 Formula) was 5.05% and the “Coefficient of absorption of the sum of all saturated fatty acids, LS mean” value (BVT.BSSL-020 Formula) was 61.4%. For the same molecule, the “Coefficient of absorption of the sum of all saturated fatty acids, LS mean difference (rhBSSL-Placebo)” value (BVT.BSSL-020 Formula) was 0.08%, the “Coefficient of absorption of the sum of all unsaturated fatty acids, LS mean” value (BVT.BSSL-020 Formula) was 78.8% and the “Coefficient of absorption of the sum of all unsaturated fatty acids, LS mean difference (rhBSSL-Placebo)” value (BVT.BSSL-020 Formula) was 3.25%. The “Coefficient of absorption of the sum of all LCPUFAs, LS mean” value (BVT.BSSL-020 and 021 Combined) was 76.1%, the “Coefficient of absorption of the sum of all LCPUFAs, LS mean difference (rhBSSL-Placebo)” value (BVT.BSSL-020 and 021 Combined) was 7.33% and the “Coefficient of absorption of the sum of all polyunsaturated fatty acids, LS mean” value (BVT.BSSL-020 and 021 Combined) was 77.3%. For the same molecule, the “Coefficient of absorption of the sum of all polyunsaturated fatty acids, LS mean difference (rhBSSL-Placebo)” value (BVT.BSSL-020 and 021 Combined) was 5.82%, the “Coefficient of absorption of the sum of all saturated fatty acids, LS mean” value (BVT.BSSL-020 and 021 Combined) was 63.8% and the “Coefficient of absorption of the sum of all saturated fatty acids, LS mean difference (rhBSSL-Placebo)” value (BVT.BSSL-020 and 021 Combined) was 2.25%. For the same molecule, the “Coefficient of absorption of the sum of all unsaturated fatty acids, LS mean” value (BVT.BSSL-020 and 021 Combined) was 74.7%, the “Coefficient of absorption of the sum of all unsaturated fatty acids, LS mean difference (rhBSSL-Placebo)” value (BVT.BSSL-020 and 021 Combined) was 4.22% and the “CFA (overall), LS Mean” value [2] was 68.56%. For the same molecule, the “CFA (overall), LS Mean Difference (rhBSSL − Placebo)” value [2] was 4.86%, the “CFA (overall), Maximum” value [2] was 93.2% and the “CFA (overall), Mean (SD)” value [2] was 68.46 (15.333) %. The “CFA (overall), Median” value [2] was 75.41%, the “CFA (overall), Minimum” value [2] was 31.2% and the “CFA for C12:0” value [2] was 87.94%. For the same molecule, the “CFA for C12:0, Difference (rhBSSL − Placebo)” value [2] was 3.50%, the “CFA for C14:0” value [2] was 75.49% and the “CFA for C14:0, Difference (rhBSSL − Placebo)” value [2] was 5.94* %. The “CFA for C16:0” value [2] was 63.88%, the “CFA for C16:0, Difference (rhBSSL − Placebo)” value [2] was 4.46% and the “CFA for C16:1” value [2] was 96.24%. For the same molecule, the “CFA for C16:1, Difference (rhBSSL − Placebo)” value [2] was 0.45%, the “CFA for C18:0” value [2] was 46.11% and the “CFA for C18:0, Difference (rhBSSL − Placebo)” value [2] was 3.63%. The “CFA for C18:1” value [2] was 71.01%, the “CFA for C18:1, Difference (rhBSSL − Placebo)” value [2] was 4.77% and the “CFA for C18:2 n-6” value [2] was 71.26%. For the same molecule, the “CFA for C18:2 n-6, Difference (rhBSSL − Placebo)” value [2] was 6.98* %, the “CFA for C18:3 n-3” value [2] was 64.39% and the “CFA for C18:3 n-3, Difference (rhBSSL − Placebo)” value [2] was 2.04%. The “CFA for C18:3 n-6” value [2] was 63.94%, the “CFA for C18:3 n-6, Difference (rhBSSL − Placebo)” value [2] was 5.82% and the “CFA for C20:1” value [2] was 52.09%. For the same molecule, the “CFA for C20:1, Difference (rhBSSL − Placebo)” value [2] was 8.53%, the “CFA for C20:2 n-6” value [2] was 53.09% and the “CFA for C20:2 n-6, Difference (rhBSSL − Placebo)” value [2] was 8.37* %. For the same molecule, the “CFA for C20:3 n-6 (sum of C20:3 n-6 and C20:3 n-3)” value [2] was 67.39§ %.
